How the values were obtained:
Format in all cases: biochemical
[1] = Reaction for releasing fructosyl valine from FVHL by angiotensin-converting enzyme; conditions: 20 U/ml enzyme solution, 2 mM FVHL, 37° C., 1 hour; 730 nm
Description: Then, 200 μl of a coloring solution (50 mM Tris-HCl (pH 7.5), 0.1% Triton X-100, 5 U/ml POD, 50 U/ml FOD2, and 0.02 mM DA-64) was added to each resultant, and the mixture was allowed to react at 37° C. for 5 minutes. Thereafter, 500 μl of 0.5% SDS was added to terminate the coloring reaction, and the absorbance at 730 nm was determined. The same reaction was performed except that distilled water was used instead of the 2 mM FVHL solution. Meanwhile, 200 μl of the coloring solution was added to 40 μl of an FV solution (0, 5, 10, 20, or 50 μM), and determination was performed in the same way as above.

[2] = pH dependency of activity of ketoamine oxidase
Description: (§1) 20 μl of an enzyme solution was added to 200 μl of a reaction solution (50 mM buffer, 0.1% Triton X-100, 0.03% 4-aminoantipyrine, 0.02% TOOS, 5 U/ml peroxidase, 2 mM substrate). The whole was incubated at 37° C. for 5 minutes and then 500 μl of 0.5% SDS was added thereto followed by determining absorbance at 555 nm. Tris-HCl (pH 7.5, 8.0, 8.5), PIPES (pH 6.0, 6.5, 7.0), and Bistris-HCl (pH 5.0, 5.5, 6.0, 6.5) were used as the buffers for determination. Also, absorbance was determined using a reaction solution containing no substrates. Differences in the absorbance when FVH and FZK each were used as a substrate and concentrations of the enzyme in the enzyme solution to be used are described in Table 18.

[3] = pH dependency of specific activity (FZK/FVH)
Description: as §1

[4] = Substrate specificity of ketoamine oxidases; conditions: for absorbance difference (A1 − Ab): pH 7.5, 37° C., 5 minutes, 555 nm; for relative activity: FVH = 100 (FOD2: FZK = 100)
Description: The phrase “reactivity of a ketoamine oxidase to ε-1-deoxyfructosyl-(α-benzyloxycarbonyl-L-lysine) (hereinafter also referred to as FZK) is 5% or less compared with that to 1-deoxyfructosyl-L-valyl-L-histidine (hereinafter also referred to as FVH)” refers to the fact that the rate of the reactivity is 5% or less, which is determined by the following steps: adding 20 μl of a ketoamine oxidase solution to 200 μl of a reaction solution (50 mM Tris-HCl buffer (pH 7.5), 0.1% Triton X-100, 0.03% 4-aminoantipyrine, 0.02% TOOS, 5 U/ml peroxidase, and 2 mM FZK or FVH); allowing the mixture to react at 37° C. for 5 minutes; adding 0.5 ml of 0.5% SDS; determining an absorbance at 555 nm (A1); performing the same operations using a reaction solution containing no FZK and FVH to determine an absorbance (Ab); and determining the reactivity from the difference (A1−Ab).
(§2) Determination was performed by the same method described in <Reference Example: Substrate Specificity of Ketoamine Oxidase derived from Curvularia clavata YH923 (FERM BP-10009), Ketoamine Oxidase derived from Neocosmospora vasinfecta 474, and Ketoamine Oxidase derived from Fusarium oxysporum (manufactured by Asahi Kasei Pharma)>.

[5] = Specificity of mutant ketoamine oxidase to various substrates; conditions: Table 17; FVH = 100
Description: 100 μl of a preliminary sterilized expression medium (a medium containing 3% of sorbitol, 1.5% of polypeptone, 1.5% of yeast extract, and 50 μg/ml of ampicillin and adjusted to pH 7.0) was added to a 96-well microplate. Grown transformants were inoculated thereto and cultured overnight at 30° C. After the termination of the culture, each 5 μl of the culture solution was dispensed into two wells of a 96-well plate and 50 μl of a determination reagent (a 50 mM Tris-HCl buffer (pH 7.5) containing 1 mM FVH or FZK, 0.02% TOOS, 0.02% 4-aminoantipyrine and 10 U/ml peroxidase) was added to each well, and a reaction was carried out at 30° C. for 10-60 minutes. 150 μl of 0.5% SDS was added thereto to terminate the reaction and absorbance was determined at 550 nm using a Microreader (model 450, manufactured by Bio-Rad). From the constructed mutant library, a recombinant which produces ketoamine oxidase that act on FVH but has a decreased activity on FZK was selected. As a result of the screening, 923-F1 and 923-F2 were obtained as favorable mutant strains. Ketoamine oxidase genes harbored by those mutant strains were sequenced and resulted that mutations were introduced in the bases indicated by Table 15.
Note that, concentration of each substrate was set to be 1 mM and other reaction conditions were set according to the activity determination method described in <Screening of Mutant Ketoamine Oxidase having Decreased Action on FZK>.
Ketoamine oxidase derived from Neocosmospora vasinfecta 474 (FOD474) has high homology to ketoamine oxidases containing FOD923 and its amino acid sequence at an N-terminal region containing 158 of FOD923 is highly conserved as shown in FIG. 1. Using pPOSFOD474, FOD474 mutant strain 474-F1 in which 158 of FOD474 is substituted by a different amino acid (threonine) was acquired. […] 58 is a site that strongly affect on the specificity to FVH even in a case of a ketoamine oxidase derived from other microorganism species.

[6] = Substrate specificity of ketoamine oxidases; conditions: for absorbance difference (A1 − Ab): pH 7.5, 37° C., 5 minutes, 555 nm; for relative activity: FVH = 100 (FOD2: FZK = 100); remark: listed apart in the source
Description: as §2

B1: ACEP: angiotensin-converting enzyme derived from porcine kidney (manufactured by Sigma Corporation) (protein, UniProt F1RRW5 34-1309, looked up)
Angiotensin-converting enzyme: LDSALQPGNFTADEAGAEDFAQSFNSSSEQVLFQSTAASWAHDTNITEENARRQEEAALISQEFSEVWGQKAKALYDPIWQNFTSRTLRRIIGVVRTLGSANLSPAKRQQYNSLLSNMTRIYSTAKVCFPNKTATCWSLDPELTNILATSRSYTLLLYAWEGWHNAAGIPLKPLYQDFTALSNEAYKQDGFSDTGAYWRSLYDSPTFTEDLERLYHQLEPLYLNLHAYVRRALHRQYGDRFINLRGPIPAHLLGNMWAQSWNNIYDMVVPFPGKPSLDVTSAMVQKGWNVTHMFRVAEEFFTSLGLLPMPPEFWAESMLEKPSDGREVVCHASAWDFYNRKDFRIKQCTQVTMDQLSTVHHEMGHVQYYLQYKDQHVSLRRGANPGFHEAIGDVLALSVSTPAHLHKIGLLDHVTSDWESDINYLLKMALEKIAFLPFGYLVDQWRWGVFSGRTPPLYNYDWWYLRTKYQGVCPPVVRNETHFDAGAKYHVPNVTPYIRYFVSFILQFQFHQALCKEAGHQGPLHQCDIYQSTRAGAKLRAVLQAGSSRPWQEVLKDMVGSGALDAQPLLDYFQPVTQWLEEQNQRSGDILGWPEYQWRPPMPDNYPEGIDLVSDEAEASKFVEEYDRRSQVVLNEYAEANWDYNTNITAEGSKRVLEKSTQMANHTVKYGIWARKFDVANIQNFTLKRMIKKIQDLERAALPFKELEEYNQILLDMETAYSVASVCHANSTCLQLEPDLTNLMATSRSYEELLWAWKGWRDKVGRAILPYFPKYVELTNKAARLNGYEDGGDAWRAAYEMPFLEQELEQLFQELQPLYLNLHAYVRRALHHHYGPEHINLEGPIPAHLLGNMWAQTWSNIYDLVVPFPSASKMDASEAMINQGWTPQRMFKEADNFFTSLGLLPVPPEFWNKSMLEKPTDGREVVCHASAWDFFNGKDFRIKQCTTVNMEDLVVAHHEMGHIQYFMQYKDLPVTFREGANPGFHEAIGDVLALSVSTPKHLRSINLLKSEDDGYEEDINFLMKMALDKVAFVPFSYLVDQWRWRVFDRSITKENYNQEWWSLRLKYQGLCPPVARSQGDFDPGAKFHIPSSVPYIRYFVSFIIQFQFHEALCQAAGHKGPLHKCDIYQSKEAGRRLADAMKLGLSKPWPEAMQLITGQPNVSASAMMTYFKPLLDWLVTENGRHGEKLGWPQYNWTPNSARLEGSFAGTGRVNFLGLNLEEQQARVGQWVLLFLGVTLLVATMGLTQRLFSIRHQILRRTHRGPQFGSEVELRHS
[1]
  absorbance difference showing FV released: −0.006

B2: FOD474: ketoamine oxidase of Neocosmospora vasinfecta 474 that reacts with FVH, expressed in Escherichia coli (protein, listed as Neocosmospora vasinfecta)
chain: MTTPRKETTVLIIGGGGTIGSSTALHLLRAGYTPSNITVLDTYPIPSAQSAGNDLNKIMGIRLRNKVDLQLSLEARDMWRNDALFRPFFHNTGRLDCESSAEGVEGLRREYQKLVEAGVGLEETHEWLDSEEAILEKAPLLQREEIEGWKAIWSEEGGWLAAAKAINAIGEELQRQGVRFGFGGAGSFKRPLFADDGTTCIGVETVDGTQYHADKVVLAAGAWSPALVDLEEQCCSKAWVYAHMQLTPEEAAVYKGCPVVYHGDVGFFFEPNENGVIKVCDEFPGFTRFKQHQPYGAPAPKPVSVPRSHAKHPTDTYPDASEESIKRAVSTFLPRFKDKPLFNRALCWCTDTADSALLICEHPRWKNFILATGDSGHSFKLLPIIGKHVVELVEGRLADDLAEAWRWRPGQGDARKSIRAAPAKDLADMPGWKHDQDSESR
modifications: CDS (1)..(1323)
notes: ketoamine oxidase of Neocosmospora vasinfecta 474 that reacts with FVH, expressed in Escherichia coli
[2]; Bistris pH 5.0
  difference in absorbance, substrate FVH: 0.023
  difference in absorbance, substrate FZK: 0.012
[2]; Bistris pH 5.5
  difference in absorbance, substrate FVH: 0.084
  difference in absorbance, substrate FZK: 0.022
[2]; Bistris pH 6.0
  difference in absorbance, substrate FVH: 0.187
  difference in absorbance, substrate FZK: 0.042
[2]; Bistris pH 6.5
  difference in absorbance, substrate FVH: 0.273
  difference in absorbance, substrate FZK: 0.063
[2]; PIPES pH 6.0
  difference in absorbance, substrate FVH: 0.265
  difference in absorbance, substrate FZK: 0.066
[2]; PIPES pH 6.5
  difference in absorbance, substrate FVH: 0.303
  difference in absorbance, substrate FZK: 0.093
[2]; PIPES pH 7.0
  difference in absorbance, substrate FVH: 0.243
  difference in absorbance, substrate FZK: 0.132
[2]; Tris pH 7.5
  difference in absorbance, substrate FVH: 0.163
  difference in absorbance, substrate FZK: 0.162
[2]; Tris pH 8.0
  difference in absorbance, substrate FVH: 0.104
  difference in absorbance, substrate FZK: 0.200
[2]; Tris pH 8.5
  difference in absorbance, substrate FVH: 0.063
  difference in absorbance, substrate FZK: 0.210
[3]; Bistris pH 5.0
  specific activity (FZK/FVH): 10.4%
[3]; Bistris pH 5.5
  specific activity (FZK/FVH): 5.2%
[3]; Bistris pH 6.0
  specific activity (FZK/FVH): 4.9%
[3]; Bistris pH 6.5
  specific activity (FZK/FVH): 4.6%
[3]; PIPES pH 6.0
  specific activity (FZK/FVH): 5.0%
[3]; PIPES pH 6.5
  specific activity (FZK/FVH): 6.1%
[3]; PIPES pH 7.0
  specific activity (FZK/FVH): 10.9%
[3]; Tris pH 7.5
  specific activity (FZK/FVH): 19.9%
[3]; Tris pH 8.0
  specific activity (FZK/FVH): 38.5%
[3]; Tris pH 8.5
  specific activity (FZK/FVH): 66.7%
[4]; 2 mM FVH
  absorbance difference (A1 − Ab): 0.221
[4]; 2 mM FZK
  absorbance difference (A1 − Ab): 0.032
[4]; substrate FVH
  relative activity: 100%
[4]; substrate FZK
  relative activity: 15%
[5]
  specificity, substrate FV: 540
  specificity, substrate FVH: 100
  specificity, substrate FZK: 40
[6]; 2 mM FV
  absorbance difference (A1 − Ab): 0.289
[6]; 2 mM FVHL
  absorbance difference (A1 − Ab): 0.002
[6]; 2 mM FVHLT
  absorbance difference (A1 − Ab): 0.002
[6]; 2 mM FVL
  absorbance difference (A1 − Ab): 0.059
[6]; 2 mM α-glycated pentapeptide
  absorbance difference (A1 − Ab): 0.003
[6]; 2 mM β-glycated pentapeptide
  absorbance difference (A1 − Ab): 0.002
[6]; substrate FV
  relative activity: 445%
[6]; substrate FVHL
  relative activity: 0%
[6]; substrate FVHLT
  relative activity: 0%
[6]; substrate FVL
  relative activity: 0.91%
[6]; substrate α-glycated pentapeptide
  relative activity: 0%
[6]; substrate β-glycated pentapeptide
  relative activity: 0%

Source: US7943337B2, “Method for screening a protease” (Asahi Kasei Pharma Corporation, priority 2003, dated 2011)
